Reference: patent US10100120B2, “Antibody which specifically binds to human CRTH2” (KYOWA HAKKO KIRIN CO., LTD, priority 2015, dated 2018)
Substitutions are numbered along the chain they refer to.

B1: LV0HV1: humanized Lym2 antibody, VL LV0 (SEQ ID NO: 33), VH HV1 (SEQ ID NO: 51) (antibody, V domains shown)
VH: EVQLVESGGGVVQPGRSLRLSCAASGFTFSNYYMAWVRQAPGKGLEWVATISYDGSSTYYRDSVKGRFTISRDNAKNSLYLQMNSLRAEDTATYYCARHRGYYYSGAGYFDYWGQGTMVTVSS
VL: DIVMTQTPLSLPVTPGESASISCRSSQSLEYSDGYTYLEWYLQKPGQSPQVLIYGVSNRFSGVPDRFSGSGSGTDFTLKISRVEAEDVGVYYCFQATHDPLTFGQGTKLEIK
B2: Lym2 antibody: rat anti-human CRTH2 monoclonal antibody from hybridoma Lym2, rat IgG2b; VH SEQ ID NO: 17, VL SEQ ID NO: 19 (antibody, listed as Rattus norvegicus, V domains shown)
VH: B1 VH with V11L, L18M, R19K, G42K, N77S, S78T, N84D, A88S, T117V
VL: DVVLTQTPVSLSVTLGDQASISCRSSQSLEYSDGYTYLEWYLQKPGQSPQVLIYGVSNRFSGVPDRFIGSGSGTDFTLKISRVEPEDLGVYYCFQATHDPLTFGSGTKLEIK

How the values were obtained:
[1] = tested on: Th2 cells; assay: Cytotoxic activity against Th2 cells: cytokine production of PBMC after antibody treatment; format: cell-based, human; conditions: antibody 10 μg/mL 20 hours, then anti-CD3/anti-CD28 stimulation 3 days
Protocol: The mononuclear cell layer prepared in the same manner as in Example 13 was washed twice with RPMI-1640 (Wako Pure Chemical Industries) to which 1/10 volume FBS (GIBCO Inc.), 200 mM-L-Glutamine Stock Solution (NACALAI TESQUE, Inc.), 10 mM MEM Non-Essential Amino Acids Solution (GIBCO Inc.), 100 mM Sodium Pyruvate (GIBCO Inc.), 1 M HEPES Buffer Solution (GIBCO Inc.), and 1/100 volume Penicillin-Streptomycin, Liquid (GIBCO Inc.) were added [hereinafter, referred to as peripheral blood mononuclear cell (PBMC) culture medium], thereby preparing a 1×10^7 cells/mL cell suspension.
The prepared cell suspension was seeded in a 96-well plate at 100 μL/well, chLym2 antibody, the humanized anti-human CRTH2 antibody LV0HV1 or the isotype control antibody described in Example 8 was added thereto at a final concentration of 10 μg/mL to cause a reaction in a 5% CO2 incubator at 37° C. for 20 hours.
The cells after the reaction were washed 7 times with a PBMC culture medium to remove the test antibodies thoroughly. Thereafter, the cells were suspended with 100 μL of PBMC culture medium and seeded in a plate in which anti-CD3 antibody OKT3 (Abeam plc.) was immobilized at a concentration of 1 μg/mL. Next, an anti-CD28 antibody (BD Biosciences) prepared to have a concentration of 2 μg/mL was added thereto at 100 μL/well to cause a reaction in a 5% CO2 incubator at 37° C. for 3 days.
The supernatant after the reaction was recovered, and cytokine in the supernatant was quantified using Human IFN-γ Flex Set (BD Biosciences), Human IL-5 Flex Set (BD Biosciences), and Human IL-13 Flex Set (BD Biosciences) according to the attached instructions.

[2] = tested on: human eosinophils; assay: Agonist, antagonist and ligand-induced signal enhancing activity using shape change of human eosinophils (Example 21); format: cell-based; conditions: antibody 10 μg/mL, FIG. 18
Protocol: Eosinophils were separated from human peripheral blood in the same manner as in Example 11. In this case, the step of adding the same amount of physiological saline for injection as the blood to the blood was omitted and the […] on Ficoll-Paque PREMIUM 1.084 (GE Healthcare). The isolated human eosinophils were suspended with D-PBS (−) (NACALAI TESQUE, Inc.) and a reaction was performed in a 5% CO2 incubator at 37° C. for 1 hour and 30 minutes.
Thereafter, the cells were seeded in a 96-well plate at 0.7×10^5 cells/well using 10% FBS-containing RPMI1640. Next, an isotype control antibody, the humanized Lym2 antibody LV0HV1, the anti-human CRTH2 antibody hu19A2 v52, ch8B1, ch3C12, or ch31A5 prepared in Example 9, or the commercially available anti-human CRTH2 antibody BM16 (Santa Cruz Biotechnology), or 301108 (R&D) was added thereto at a final concentration of 10 μg/mL to cause a reaction in a 5% CO2 incubator at 37° C. for 30 minutes. […]
Next, RPMI1640 containing either DKPGD2 (Cayman Chemical) or 10% FBS—was added thereto at a final concentration of 100 nM to cause a reaction in a 5% CO2 incubator at 37° C. for 60 minutes. […] The cells were washed twice with SM, and the shape change of eosinophils was analyzed in the same manner as in Example 19.

[3] = tested on: human eosinophils; assay: Agonist activity using shape change of human eosinophils as index (Example 20); format: cell-based; conditions: 0 to 10 μg/mL, 1 hour; FIG. 17
Protocol: In the same experimental system as in Example 19 described above, rat anti-human CRTH2 antibody Lym2 at each final concentration of 0, 0.01, 0.1, 1, and 10 μg/mL was added and a reaction was performed for 1 hour and shape change of eosinophils was analyzed.

Row | Molecule | production of IL-5 (Th2 cytokine) ([1]; FIG. 12(A)) | production of IL-13 (Th2 cytokine) ([1]; FIG. 12(A)) | production of IFN-γ (Th1 cytokine) ([1]; FIG. 12(B)) | effect on shape change of eosinophils induced by DKPGD2 ([2]; DKPGD2 100 nM) | shape change of eosinophils in the absence of a ligand (agonist activity) ([2]; no DKPGD2) | shape change of eosinophils caused by antibody (agonist activity) [3]
1 | B1 | reduced | reduced | not changed | do not affect shape change | do not affect shape change | 
2 | B2 |  |  |  |  |  | doesn't cause the shape change
